The chains are these.
B2: chicken netrin‐2L (netrin‐2‐like) (ligand)
chain: not shown
notes: netrin-2 (netrin-2-like), chicken, used in place of human netrin-3 as its ortholog; Used because recombinant human netrin-3 was not soluble; also called NTN2L; NTN‐2L; source: recombinant

The target of experiment [1] is B2. The experiment can be described thus: BLI; OctetRED96; netrin-1 or netrin-2 coated on HIS1K biosensors, UNC5 ECDs in solution at 3.12-100 nM; 30°C, 1,000 rpm, PBS, 0.02% Tween-20, 0.1% BSA; 5 min association, 5 min dissociation; 1:1 binding model. The note with it: both partners purified.
Experiment [2] addresses T1, extra‐cellular domain (ECD) of mouse DCC (mouse, UniProt P70211 26-1097).
T1 construct: DCC (deleted in colorectal carcinoma), mouse, extracellular domain; The Fc is inferred from the capture on AHC biosensors; also called mDCC; source: recombinant
Put plainly: BLI; OctetRED96; ECDs of mNeogenin or mDCC coated on AHC biosensors, hNetrin-1 or chNetrin-2 in solution at 3.12-100 nM; 30°C, PBS, 0.02% Tween-20, 0.1% BSA with 1 µg/ml Dextran 5,000; 1:1 binding model. The note with it: both partners purified. For orientation: Biolayer interferometry detects binding as a change in optical thickness at a sensor tip.

T1 sequence (P70211 26-1097): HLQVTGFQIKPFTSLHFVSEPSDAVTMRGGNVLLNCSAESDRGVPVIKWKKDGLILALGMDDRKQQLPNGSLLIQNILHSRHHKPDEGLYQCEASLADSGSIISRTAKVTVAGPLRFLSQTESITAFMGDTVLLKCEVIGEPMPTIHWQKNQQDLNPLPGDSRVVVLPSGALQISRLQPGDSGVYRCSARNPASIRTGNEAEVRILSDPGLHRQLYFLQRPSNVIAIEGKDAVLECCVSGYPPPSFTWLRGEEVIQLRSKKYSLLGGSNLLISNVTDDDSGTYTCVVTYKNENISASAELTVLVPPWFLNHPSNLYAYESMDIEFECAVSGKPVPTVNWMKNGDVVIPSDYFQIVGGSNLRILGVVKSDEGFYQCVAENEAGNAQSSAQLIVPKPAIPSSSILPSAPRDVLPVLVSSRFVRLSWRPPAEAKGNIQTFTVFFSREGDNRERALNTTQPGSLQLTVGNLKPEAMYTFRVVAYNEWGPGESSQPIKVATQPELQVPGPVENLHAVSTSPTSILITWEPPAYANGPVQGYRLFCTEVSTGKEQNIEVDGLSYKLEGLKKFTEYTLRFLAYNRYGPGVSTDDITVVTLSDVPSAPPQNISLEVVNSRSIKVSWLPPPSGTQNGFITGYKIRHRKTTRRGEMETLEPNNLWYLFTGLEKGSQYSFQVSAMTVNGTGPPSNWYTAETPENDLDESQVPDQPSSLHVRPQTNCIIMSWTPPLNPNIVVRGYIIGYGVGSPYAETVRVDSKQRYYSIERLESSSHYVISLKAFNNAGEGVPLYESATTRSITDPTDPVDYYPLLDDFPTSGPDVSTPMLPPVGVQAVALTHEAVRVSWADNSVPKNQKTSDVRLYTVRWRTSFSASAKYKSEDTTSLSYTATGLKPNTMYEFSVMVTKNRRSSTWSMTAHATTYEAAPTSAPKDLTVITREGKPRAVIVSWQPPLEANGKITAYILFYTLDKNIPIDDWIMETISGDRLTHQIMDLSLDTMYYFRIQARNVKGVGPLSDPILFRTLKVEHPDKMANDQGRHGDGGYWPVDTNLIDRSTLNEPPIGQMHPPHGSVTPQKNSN

B1: extra‐cellular domain (ECD) of rat UNC5H2 (Fc fusion)
chain: not shown
notes: UNC5H2 (UNC5B), rat, extracellular domain; The Fc is inferred from the capture on AHC biosensors in the antagonism test; also called rUNC5H2; UNC5‐B; source: recombinant
B1: the binding result in experiment [1] is recorded as “binds”.
As to B2, the binding result in experiment [2] was “binds”.

B3: extra‐cellular domain (ECD) of human UNC5H1 (domain or fragment)
chain: not shown
notes: UNC5H1 (UNC5A), human, extracellular domain; it may be an Fc chimera like the other ECDs; also called hUNC5H1; UNC5A; source: recombinant
Take B3: in experiment [1], the binding result is “binds”.

B4: extra‐cellular domain (ECD) of human UNC5H3 (domain or fragment)
chain: not shown
notes: UNC5H3 (UNC5C), human, extracellular domain; it may be an Fc chimera like the other ECDs; also called hUNC5H3; UNC5‐C; source: recombinant
As for B4, in experiment [1], the binding result is given as “binds”.

These data come from paper PMC8033513, “Targeting netrin‐3 in small cell lung cancer and neuroblastoma” (EMBO Molecular Medicine, 2021).
